The target in experiment [1] is mouse serum albumin (mouse) (UniProt P07724). Description: SPR; Biacore 3000; mouse serum albumin immobilized on CM5 chip (approx. 800 RU); dilution series of ABD-PrlRA injected; 25°C, 40 μl/min; 1:1 Langmuir model. For orientation: SPR reads the build-up and loss of mass on a sensor chip optically.
For experiment [2], the target named is prolactin receptor (PrlR), extracellular domain (UniProt P16471). Description: SPR; Biacore 3000; PrlR immobilized on CM5 chip (approx. 300 RU); dilution series of analyte injected; 25°C, 40 μl/min; PBS with 0.05% Tween-20; 1:1 Langmuir model.
Experiment [3] shares this target. Description: SPR; Biacore 3000; extracellular domain of PrlR immobilized; ABD-PrlRA dilution series with HSA added to 400 nM, incubated 4 h at 4°C; PBS with 0.05% Tween-20 and HSA as running buffer; 25°C, 40 μl/min; 1:1 Langmuir model (called an approximation).
For experiment [4] the target is unchanged. Described as above. The source holds these as a separate data set.
Experiment [5] addresses T1, prolactin receptor (PrlR), extracellular domain (UniProt P16471 25-234).
T1 construct: prolactin receptor, extracellular domain, from Sino Biological; No catalogue number printed; source: bought: Sino Biological
T1 sequence (looked up): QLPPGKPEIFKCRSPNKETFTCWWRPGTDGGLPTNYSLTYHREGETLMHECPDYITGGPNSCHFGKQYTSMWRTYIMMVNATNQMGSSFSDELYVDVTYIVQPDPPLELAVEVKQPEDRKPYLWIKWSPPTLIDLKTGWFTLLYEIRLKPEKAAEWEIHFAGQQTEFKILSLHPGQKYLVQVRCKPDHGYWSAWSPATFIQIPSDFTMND
Description: SPR; Biacore 3000; PrlR immobilized on CM5 chip (approx. 300 RU); dilution series of analyte injected; 25°C, 40 μl/min; PBS with 0.05% Tween-20; 1:1 Langmuir model. As to conditions: both partners purified.

Experiment [6] concerns the target T1, prolactin receptor (PrlR), …. The description is as above. As to conditions: both partners purified. This is another data set of the same source.

Sequence of mouse serum albumin (mouse) (P07724 25-608): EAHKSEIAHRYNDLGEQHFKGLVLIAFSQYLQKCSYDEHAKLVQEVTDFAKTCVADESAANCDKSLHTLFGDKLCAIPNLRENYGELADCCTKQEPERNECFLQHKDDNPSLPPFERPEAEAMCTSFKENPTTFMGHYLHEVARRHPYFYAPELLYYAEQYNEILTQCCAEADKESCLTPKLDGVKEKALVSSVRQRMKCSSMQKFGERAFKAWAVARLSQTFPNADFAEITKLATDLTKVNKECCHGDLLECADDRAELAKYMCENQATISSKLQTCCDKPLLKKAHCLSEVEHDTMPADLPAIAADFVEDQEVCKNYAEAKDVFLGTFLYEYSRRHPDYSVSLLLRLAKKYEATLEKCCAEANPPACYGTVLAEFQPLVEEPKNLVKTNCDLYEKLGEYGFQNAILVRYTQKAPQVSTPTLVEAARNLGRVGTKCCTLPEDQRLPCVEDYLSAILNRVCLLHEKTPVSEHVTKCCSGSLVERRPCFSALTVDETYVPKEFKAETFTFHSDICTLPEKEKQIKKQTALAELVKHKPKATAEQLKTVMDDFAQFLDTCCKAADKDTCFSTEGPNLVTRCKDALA

By Kd is commonly meant the equilibrium constant for the complex coming apart. Read a low Kd as a tighter complex. The koff is a measure of how fast the partners let go of each other. By kon is commonly meant the second-order rate constant of association. High values mean faster complex formation, low ones slower complex formation. In experiment [1], “ABD-PrlRA (fusion of an N-terminal albumin binding domain ABD035 and the prolactin receptor antagonist PrlRA) (from UniProt P01236 29-227)” registered a Kd of 0.38 nM, a koff of 0.0012 s⁻¹ and a kon of 3.1e+06 M⁻¹ s⁻¹. In experiment [2], this molecule showed a Kd of 2.3 nM, a koff of 0.00074 s⁻¹ and a kon of 330000 M⁻¹ s⁻¹.
Consider “complex of HSA and ABD-PrlRA (from UniProt P02768 25-609; P01236 29-227)”, for which, in experiment [3], the Kd came to 21 nM, the koff came to 0.00078 s⁻¹ and the kon worked out at 39000 M⁻¹ s⁻¹. Also, the Kd in experiment [4] was determined as 23 nM.

B1: prolactin receptor antagonist PrlRA (ligand, human)
chain: MGSSRSQVTLRDLFDRAVVLSHYIHNLASEMFSEFDKRYTHGRGFITKAINSCHTSSLATPEDKEQALQMNQKDFLSLIVSILRSWNEPLYHLVTEVRGMQEAPEAILSKAVEIEEQTKRLLERMELIVSQVHPETKENEIYPVWSGLPSLQMADEESRLSAYYNLLHCLRRDSHKIDNYLKLLRCRIIHNNNC
In experiment [5], B1 returned a dissociation constant Kd of 3.4 ± 0.5 nM, a koff of 0.00088 s⁻¹ and a kon of 260000 M⁻¹ s⁻¹.

B2: Prolactin (Prl*), commercially obtained (ligand, UniProt P01236 29-227, looked up)
chain: LPICPGGAARCQVTLRDLFDRAVVLSHYIHNLSSEMFSEFDKRYTHGRGFITKAINSCHTSSLATPEDKEQAQQMNQKDFLSLIVSILRSWNEPLYHLVTEVRGMQEAPEAILSKAVEIEEQTKRLLEGMELIVSQVHPETKENEIYPVWSGLPSLQMADEESRLSAYYNLLHCLRRDSHKIDNYLKLLKCRIIHNNNC
notes: prolactin from Sino Biological; No catalogue number printed; source: bought: Sino Biological
Consider B2, for which, in experiment [6], the Kd came to 23 ± 4 nM.

B3: prolactin (Prl), produced in house (ligand, human)
chain: MGSSLPICPGGAARCQVTLRDLFDRAVVLSHYIHNLSSEMFSEFDKRYTHGRGFITKAINSCHTSSLATPEDKEQAQQMNQKDFLSLIVSILRSWNEPLYHLVTEVRGMQEAPEAILSKAVEIEEQTKRLLEGMELIVSQVHPETKENEIYPVWSGLPSLQMADEESRLSAYYNLLHCLRRDSHKIDNYLKLLKCRIIHNNNC
notes: prolactin, human; the Prl gene itself is not separately called human; also called in house produced Prl
On to B3, for which, in experiment [5], the affinity, expressed as Kd, was 8.4 ± 0.2 nM; the koff is 0.0012 s⁻¹; the kon was determined as 140000 M⁻¹ s⁻¹.

Source of the values: paper PMC6504076, “An in vivo half-life extended prolactin receptor antagonist can prevent STAT5 phosphorylation” (PLoS ONE, 2019).
